Experimental findings from patent US20250388881A1, “METHOD FOR IMPROVING THERMOSTABILITY OF PHYTASE, MUTANT AND USE” (priority 2022, published 2025) are described below.

The kcat/Km is the turnover number divided by the Michaelis constant. Usually Km stands for the concentration of substrate that gives half-maximal velocity. Usually Vmax stands for the top rate of the reaction or transport when substrate is in excess. As usually defined, the kcat is the maximal rate divided by the concentration of active sites.

Data set [1] deals with Yersinia intermedia phytase APPAmut4 (parent), SEQ ID NO: 1 (Yersinia intermedia, UniProt Q000T0, A346L/M382L/V109D/Y74E). Kind of data set: Determination of dynamic parameters on sodium phytate: phytase APPAmut4. Type of data set: biochemical. The settings on record: 37° C., pH 5.5, sodium phytate 0.05 to 1.00 mM.
Data set [2] deals with Yersinia intermedia phytase APPAmut4 (SEQ ID NO: 1) mutant A147C/Y268C (Yersinia intermedia, UniProt Q000T0, A170C/A346L/M382L/V109D/Y291C/Y74E). Kind of data set: Determination of dynamic parameters on sodium phytate: mutant A147C/Y268C. Type of data set: biochemical. Particulars: 37° C., pH 5.5, sodium phytate 0.05 to 1.00 mM.
The target of data set [3] is Yersinia intermedia phytase APPAmut4 (SEQ ID NO: 1) mutant G65R (Yersinia intermedia, UniProt Q000T0, A346L/G88R/M382L/V109D/Y74E). In words: Determination of dynamic parameters on sodium phytate: mutant G65R. The class given is biochemical. The settings on record: 37° C., pH 5.5, sodium phytate 0.05 to 1.00 mM.
Data set [4] concerns O=P(O)(O)O[C@H]1[C@H](OP(=O)(O)O)[C@@H](OP(=O)(O)O)[C@H](OP(=O)(O)O)[C@@H](OP(=O)(O)O)[C@H]1OP(=O)(O)O. In words: Determination of dynamic parameters on sodium phytate: mutant R271C/E413C. The class given is biochemical, Yersinia intermedia. Particulars: other: R271C/E413C, 37° C., pH 5.5, sodium phytate 0.05 to 1.00 mM.
The test system is the same in data set [5]. In words: Determination of dynamic parameters on sodium phytate: mutant E282L. The class given is biochemical, Yersinia intermedia. The settings on record: other: E282L, 37° C., pH 5.5, sodium phytate 0.05 to 1.00 mM.
The test system is the same in data set [6]. Kind of data set: Determination of dynamic parameters on sodium phytate: mutant A147C/Y268C. The class given is biochemical, Yersinia intermedia. Particulars: other: A147C/Y268C, 37° C., pH 5.5, sodium phytate 0.05 to 1.00 mM.
The test system is the same in data set [7]. Kind of data set: Determination of dynamic parameters on sodium phytate: mutant A57C/A103C. The class given is biochemical, Yersinia intermedia. Particulars: other: A57C/A103C, 37° C., pH 5.5, sodium phytate 0.05 to 1.00 mM.
For data set [8] the test system is unchanged. In words: Determination of dynamic parameters on sodium phytate: mutant R353C/L401C. The class given is biochemical, Yersinia intermedia. Particulars: other: R353C/L401C, 37° C., pH 5.5, sodium phytate 0.05 to 1.00 mM.
Data set [9] has the same test system. In words: Determination of dynamic parameters on sodium phytate: mutant G101C/V116C. The settings on record: other: G101C/V116C, 37° C., pH 5.5, sodium phytate 0.05 to 1.00 mM. Type of data set: biochemical, Yersinia intermedia.
Data set [10] shares this test system. In words: Determination of dynamic parameters on sodium phytate: phytase APPAmut4. Type of data set: biochemical, Yersinia intermedia. The settings on record: other: APPAmut4, 37° C., pH 5.5, sodium phytate 0.05 to 1.00 mM.
Data set [11] shares this test system. Kind of data set: Determination of dynamic parameters on sodium phytate: mutant G365D. Type of data set: biochemical, Yersinia intermedia. The settings on record: other: G365D, 37° C., pH 5.5, sodium phytate 0.05 to 1.00 mM.
The test system is the same in data set [12]. In words: Determination of dynamic parameters on sodium phytate: mutant G65R. The class given is biochemical, Yersinia intermedia. The settings on record: other: G65R, 37° C., pH 5.5, sodium phytate 0.05 to 1.00 mM.

`O=P(O)(O)O[C@H]1[C@H](OP(=O)(O)O)[C@@H](OP(=O)(O)O)[C@H](OP(=O)(O)O)[C@@H](OP(=O)(O)O)[C@H]1OP(=O)(O)O` [sodium phytate]: the kcat/Km in [1] stood at 1.2322e+07 M⁻¹ s⁻¹; in data set [2], 1.0823e+07 M⁻¹ s⁻¹; in data set [3] it was 9.009e+06 M⁻¹ s⁻¹.

With “Yersinia intermedia phytase APPAmut4 (SEQ ID NO: 1) mutant R271C/E413C (Yersinia intermedia; A346L/E436C/M382L/R294C/V109D/Y74E)”, in data set [4], the Km came to 180 ± 30 µM, the Vmax was 3180 µmol/min/mg, the kcat came out at 2410 ± 154 s⁻¹ and the kcat/Km was found to be 1.34e+07 ± 1.54e+06 M⁻¹ s⁻¹.

“Yersinia intermedia phytase APPAmut4 (SEQ ID NO: 1) mutant E282L (Yersinia intermedia; A346L/E305L/M382L/V109D/Y74E)”: in data set [5], the Km is 150 ± 20 µM, the Vmax is 2300 µmol/min/mg, the kcat is 1750 ± 67 s⁻¹ and the kcat/Km stood at 1.13e+07 ± 967000 M⁻¹ s⁻¹.

As for “Yersinia intermedia phytase APPAmut4 (SEQ ID NO: 1) mutant A147C/Y268C (Yersinia intermedia; A170C/A346L/M382L/V109D/Y291C/Y74E)”, in [6], the Km was 220 ± 30 µM, the Vmax came to 3140 µmol/min/mg, the kcat came out at 2380 ± 124 s⁻¹ and the kcat/Km worked out at 1.08e+07 ± 1.02e+06 M⁻¹ s⁻¹.

Take “Yersinia intermedia phytase APPAmut4 (SEQ ID NO: 1) mutant A57C/A103C (Yersinia intermedia; A126C/A346L/A80C/M382L/V109D/Y74E)”: in [7], the Km stood at 180 ± 30 µM, the maximum rate (Vmax) worked out at 2840 µmol/min/mg, the catalytic constant (kcat) came to 2160 ± 130 s⁻¹ and the kcat/Km is 1.21e+07 ± 1.37e+06 M⁻¹ s⁻¹.

As to “Yersinia intermedia phytase APPAmut4 (SEQ ID NO: 1) mutant R353C/L401C (Yersinia intermedia; A346L/L424C/M382L/R376C/V109D/Y74E)”, in data set [8], the Km was found to be 200 ± 20 µM, the maximal velocity (Vmax) came out at 3400 µmol/min/mg, the kcat is 2580 ± 124 s⁻¹ and the catalytic efficiency (kcat/Km) is 1.29e+07 ± 955000 M⁻¹ s⁻¹.

Take “Yersinia intermedia phytase APPAmut4 (SEQ ID NO: 1) mutant G101C/V116C (Yersinia intermedia; A346L/G124C/M382L/V109D/V139C/Y74E)”: in data set [9], the Km was 200 ± 30 µM, the Vmax is 2930 µmol/min/mg, the kcat is 2230 ± 119 s⁻¹ and the kcat/Km turned out to be 1.11e+07 ± 1.13e+06 M⁻¹ s⁻¹.

On to “Yersinia intermedia phytase APPAmut4 (parent), SEQ ID NO: 1 (Yersinia intermedia; A346L/M382L/V109D/Y74E)”, for which, in [10], the Km was 140 ± 30 µM, the Vmax stood at 2270 µmol/min/mg, the kcat was 1720 ± 72 s⁻¹ and the kcat/Km was 1.23e+07 ± 1.58e+06 M⁻¹ s⁻¹.

Regarding “Yersinia intermedia phytase APPAmut4 (SEQ ID NO: 1) mutant G365D (Yersinia intermedia; A346L/G388D/M382L/V109D/Y74E)”, in data set [11], the Michaelis-Menten constant (Km) turned out to be 140 ± 20 µM, the Vmax stood at 2410 µmol/min/mg, the kcat amounted to 1830 ± 58 s⁻¹ and the kcat/Km was 1.32e+07 ± 1.15e+06 M⁻¹ s⁻¹.

For “Yersinia intermedia phytase APPAmut4 (SEQ ID NO: 1) mutant G65R (Yersinia intermedia; A346L/G88R/M382L/V109D/Y74E)”, in data set [12], the Michaelis constant (Km) turned out to be 220 ± 40 µM, the maximum rate (Vmax) turned out to be 2630 µmol/min/mg, the kcat amounted to 2000 ± 77 s⁻¹ and the kcat/Km was found to be 9.01e+06 ± 992000 M⁻¹ s⁻¹.
